± gives the uncertainty stated by the source.
B1: Poly(rC)-binding protein 1, residues 278 to 350; numbered along this chain, Q15365 (parent)
chain: TQTTHELTIPNNLIGCIIGRQGANINEIRQMSGAQIKIANPVEGSSGRQVTITGSAASISLAQYLINARLSSE

Variants of: B1
Assay: abundance fitness (aPCA) (normalised: wild type 0, dead -1); higher = more abundant; growth selection in yeast, the domain comes from the species named
Settings: Homo sapiens

Abundance fitness, by site and new letter:
T3: K 0.257 ± 0.073 | D 0.053 ± 0.091 | S 0.119 ± 0.046 | A 0.048 ± 0.05 | E 0.285 ± 0.052 | Q 0.11 ± 0.051 | M 0.161 ± 0.068 | R 0.119 ± 0.035 | Y -0.221 ± 0.17 | C -0.009 ± 0.09 | V 0.023 ± 0.045 | H 0.147 ± 0.1 | N 0.113 ± 0.095 | G 0.167 ± 0.033 | I -0.345 ± 0.21 | P -0.16 ± 0.078 | L 0.079 ± 0.047
Q2: D 0.052 ± 0.073 | R 0.054 ± 0.037 | G 0.031 ± 0.035 | C -0.263 ± 0.064 | Y 0.082 ± 0.087 | E -0.077 ± 0.044 | I 0.118 ± 0.093 | P -0.128 ± 0.079 | V 0.015 ± 0.043 | T 0.142 ± 0.051 | A -0.177 ± 0.041 | W 0.017 ± 0.04 | M 0.075 ± 0.054 | K 0.101 ± 0.046
T1: N 0.194 ± 0.12 | C -0.218 ± 0.12 | Q -0.559 ± 0.24 | I 0.094 ± 0.084 | G -0.02 ± 0.048 | P -0.141 ± 0.15 | W -0.287 ± 0.083 | M 0.058 ± 0.088 | Y -0.072 ± 0.16 | K -0.191 ± 0.12 | E 0.106 ± 0.085 | D 0.167 ± 0.097 | S 0.012 ± 0.061 | V 0.061 ± 0.058
P10: T -0.549 ± 0.11 | Q -0.538 ± 0.1 | M -0.868 ± 0.17 | K -0.181 ± 0.077 | H -0.442 ± 0.19 | W -0.915 ± 0.14 | A -0.117 ± 0.05 | I -0.696 ± 0.49 | S -0.274 ± 0.061 | R -0.504 ± 0.061 | C -0.577 ± 0.13 | E -0.237 ± 0.076 | L -0.597 ± 0.083 | V -0.707 ± 0.1 | G -0.474 ± 0.054 | N -0.938 ± 0.37 | D -0.363 ± 0.093
E6: R 0.164 ± 0.04 | P -0.965 ± 0.37 | F -0.088 ± 0.14 | A 0.002 ± 0.043 | N 0.161 ± 0.08 | Y 0.218 ± 0.087 | V 0.135 ± 0.044 | S 0.08 ± 0.055 | I 0.116 ± 0.18 | Q 0.156 ± 0.077 | H 0.232 ± 0.11 | W -0.102 ± 0.051 | T 0.294 ± 0.074 | K 0.113 ± 0.068 | M 0.07 ± 0.067 | C 0.168 ± 0.061
I9: W -0.847 ± 0.12 | A -0.688 ± 0.081 | Y -0.567 ± 0.17 | L -0.072 ± 0.041 | S -0.885 ± 0.14 | H -0.039 ± 0.34 | C -0.839 ± 0.15 | M -0.356 ± 0.073 | R -0.732 ± 0.066 | E -0.942 ± 0.14 | V 0.076 ± 0.038 | P -0.835 ± 0.13 | N -0.805 ± 0.21 | Q -0.767 ± 0.12 | G -0.771 ± 0.07 | F 0.066 ± 0.14 | D -0.714 ± 0.17 | T -0.79 ± 0.13
N11: A -0.075 ± 0.054
L7: Y -0.436 ± 0.13 | A -0.504 ± 0.073 | H -0.744 ± 0.2 | I -0.013 ± 0.12 | M 0.113 ± 0.055 | C -0.208 ± 0.081 | N -0.803 ± 0.39 | S -0.468 ± 0.072 | K -0.53 ± 0.18 | P -1.03 ± 0.34 | T -0.447 ± 0.079 | V -0.043 ± 0.048 | E -0.331 ± 0.085 | Q -0.382 ± 0.096 | W -0.274 ± 0.053 | R -0.354 ± 0.051 | G -0.517 ± 0.059 | F -0.051 ± 0.087 | D -0.616 ± 0.15
H5: C 0.104 ± 0.084 | D -0.323 ± 0.073 | P -0.699 ± 0.19 | W 0.091 ± 0.048 | R 0.091 ± 0.041 | Y -0.083 ± 0.11 | G -0.081 ± 0.038 | Q 0.253 ± 0.059 | N -0.173 ± 0.088 | F -0.32 ± 0.2 | E -0.073 ± 0.061 | T 0.066 ± 0.085 | I 0.113 ± 0.091 | M 0.136 ± 0.057 | V 0.217 ± 0.042 | K 0.107 ± 0.069 | A 0.139 ± 0.043 | S 0.091 ± 0.056
T4: N -0.138 ± 0.17 | Y 0.013 ± 0.1 | Q -0.087 ± 0.073 | I -0.292 ± 0.15 | L -0.217 ± 0.055 | P -0.271 ± 0.077 | M -0.189 ± 0.073 | D -0.284 ± 0.084 | R -0.155 ± 0.041 | W -0.31 ± 0.063 | A -0.109 ± 0.053 | E -0.113 ± 0.066 | S 0.008 ± 0.053 | H -0.26 ± 0.13 | F -0.182 ± 0.14 | V -0.088 ± 0.046
T8: M 0.028 ± 0.085 | N 0.081 ± 0.13 | S -0.074 ± 0.066 | K -0.128 ± 0.11 | E 0.069 ± 0.052 | L -0.032 ± 0.052 | G -0.559 ± 0.049 | Y 0.05 ± 0.11 | Q -0.076 ± 0.094 | V 0.207 ± 0.042 | A -0.124 ± 0.053 | I -0.008 ± 0.14 | C 0.098 ± 0.078 | H 0.017 ± 0.13 | D 0.144 ± 0.097 | W -0.064 ± 0.049 | R -0.028 ± 0.036
